Reference: IntAct's records for PubMed 31046837

Biological target: at2a2_mouse Atp2a2 (UniProt O55143)
Sequence (O55143 whole entry): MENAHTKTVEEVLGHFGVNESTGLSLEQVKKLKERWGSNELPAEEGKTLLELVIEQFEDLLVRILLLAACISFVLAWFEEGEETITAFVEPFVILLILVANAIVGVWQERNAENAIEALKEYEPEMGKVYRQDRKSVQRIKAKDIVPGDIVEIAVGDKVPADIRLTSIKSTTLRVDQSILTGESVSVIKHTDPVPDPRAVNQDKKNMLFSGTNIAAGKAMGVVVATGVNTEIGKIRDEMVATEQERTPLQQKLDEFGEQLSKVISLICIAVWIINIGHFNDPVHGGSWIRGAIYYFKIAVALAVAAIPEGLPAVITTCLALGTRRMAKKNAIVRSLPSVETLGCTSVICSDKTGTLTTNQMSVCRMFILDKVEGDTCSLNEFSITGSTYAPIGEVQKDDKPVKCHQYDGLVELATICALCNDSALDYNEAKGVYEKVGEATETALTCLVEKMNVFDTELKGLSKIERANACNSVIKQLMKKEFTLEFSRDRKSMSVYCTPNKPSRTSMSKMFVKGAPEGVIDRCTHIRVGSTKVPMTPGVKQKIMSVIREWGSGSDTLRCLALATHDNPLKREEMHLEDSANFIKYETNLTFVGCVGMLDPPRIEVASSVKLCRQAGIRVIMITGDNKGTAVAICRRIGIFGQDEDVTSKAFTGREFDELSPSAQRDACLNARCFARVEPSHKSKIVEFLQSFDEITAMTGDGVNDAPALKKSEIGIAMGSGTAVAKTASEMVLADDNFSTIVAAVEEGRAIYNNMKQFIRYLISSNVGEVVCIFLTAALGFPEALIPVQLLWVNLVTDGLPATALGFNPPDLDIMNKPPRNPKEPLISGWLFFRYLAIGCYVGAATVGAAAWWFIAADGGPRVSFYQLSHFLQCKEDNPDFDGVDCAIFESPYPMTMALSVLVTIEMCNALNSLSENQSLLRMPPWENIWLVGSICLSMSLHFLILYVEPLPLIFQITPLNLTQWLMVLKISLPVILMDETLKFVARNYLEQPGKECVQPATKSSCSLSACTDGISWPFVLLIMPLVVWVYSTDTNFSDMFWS

effect of a mutation on the interaction: increasing interaction strength
Substance: Leucine-rich repeat serine/threonine-protein kinase 2 (Homo sapiens), Q5S007 G2019S
